Earlier results, collected in paper PMC2775957.

Tests used:
TEM8 (Homo sapiens) = TEM8 (Homo sapiens) (UniProt Q9H6X2)
CMG2 (Homo sapiens) = CMG2 (Homo sapiens) (UniProt P58335)

In the case of “Protective antigen (from UniProt P13423)”, the Kd (TEM8 (Homo sapiens)) is listed as 10 nM and the Kd (CMG2 (Homo sapiens)) is listed as 1 nM.
